Test results from PMC4053179.

Key:
[1] = target: recombinant p38α MAP kinase (mitogen activated protein kinase) (UniProt Q16539)
[2] = target: recombinant p38α MAP kinase (mitogen activated protein kinase) (UniProt Q16539); assay: SPR; His-tagged p38α immobilised on an NTA sensor chip via Ni2+/NTA chelation, 25°C, BIAcore-2000; C-25 injected at 4.6 × 10^−6, 9.2 × 10^−6 and 13.8 × 10^−6 M; BIAevaluation 3.0

UniProt Q16539, sequence (Q16539 whole entry): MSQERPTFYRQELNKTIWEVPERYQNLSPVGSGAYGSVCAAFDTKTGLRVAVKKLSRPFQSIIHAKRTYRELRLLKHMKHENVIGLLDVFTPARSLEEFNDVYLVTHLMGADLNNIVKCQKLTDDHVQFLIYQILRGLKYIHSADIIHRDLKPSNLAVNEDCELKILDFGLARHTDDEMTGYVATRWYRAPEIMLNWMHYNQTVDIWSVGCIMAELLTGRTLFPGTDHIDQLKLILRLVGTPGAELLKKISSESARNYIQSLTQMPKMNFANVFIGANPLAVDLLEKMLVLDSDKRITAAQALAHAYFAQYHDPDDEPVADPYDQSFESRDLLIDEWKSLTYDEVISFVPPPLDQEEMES

IC50 of inhibition of the phosphorylation of plate-coated ATF-2 by p38α (ELISA kinase assay, 100 μM ATP, C-25 at 1-25 μM, anti-phospho ATF-2 detection) [1]: 7.9 µM
Kd [2]: 269 nM
Substance: C-25 protein from Cicer arietinum (natural protein)
